Source: PMC4054823

Target: SERCA (UniProt P04191)
Assay: time-resolved FRET in reconstituted lipid vesicles
Conditions: reference: unphosphorylated labeled PLB; sites S16

phospholamban (PLB) (from UniProt P61015) PKA-phosphorylated, HPLC-purified labeled PLB (pPLB)
other: mole fraction of PLB bound to SERCA (xDA): weaker; reference 0.99 ± 0.01
